Results as given in article PMC12292245, “Probing the Active Site of Class 3 L-Asparaginase by Mutagenesis: Mutations of the Ser-Lys Tandems of ReAV” (Biomolecules, 2025).
Numbering of substitutions follows the chain as printed. Names and notes keep the numbering of the source.

B1: ReAV R47A mutant (Rhizobium etli Class 3, type V L-asparaginase) (enzyme)
chain: MTPSEDFVVTDRGGIVENSHRVHAAVVDAKGRLLYALGNPTRMTLAASAAKPAQALAILETEGVAGYGFDDADIALMCASHSSEDRHIARTRAMLSKIKAEEADLRCGGHPSLSEMVNRSWIKQDFIPTAVCSNCSGKHVGMLAGARAIGAGTDGYHLPDHPMQGRVKRTVAELCDLDAGDVEWGTDGCNLPTPAFPLDRLGRIYAKLASAADGSDAGEGQSTRCAALAHIFRAMARHPEMVAGEGRYCTMLMRAFDGALVGKLGADASYAIGVRASDATRQLGTDGALGISVKIEDGNLEMLYAVVTELLERLGIGSPDVRSQLASFHHPQRVNTMGVTTGGVSFPFKLRGSKSNVDDPRLAAVAR
notes: ReAV, inducible thermolabile type V L-asparaginase of Rhizobium etli; Homodimer; source: E. coli BL21-Gold (DE3), purified (HisTrap, TEV digestion, second HisTrap, Superdex 200)
B2: ReAV K263A mutant (Rhizobium etli Class 3, type V L-asparaginase) (enzyme)
chain: B1 chain with A47R, K263A
modifications: Cys249 chemically modified, modeled as S-hydroxycysteine
notes: ReAV, inducible thermolabile type V L-asparaginase of Rhizobium etli; Homodimer; Zn2+ at occupancy 0.8 in the crystal; source: E. coli BL21-Gold (DE3), purified (HisTrap, TEV digestion, second HisTrap, Superdex 200)
B3: ReAV K51A mutant (in fact the double mutant K51A/H238Y; Rhizobium etli Class 3, type V L-asparaginase) (enzyme)
chain: B1 chain with A47R, K51A, H238Y
notes: ReAV, inducible thermolabile type V L-asparaginase of Rhizobium etli; the crystallised protein carries the unintended second mutation H238Y; Homodimer; Zn2+ at occupancy 0.5 in the crystal; source: E. coli BL21-Gold (DE3), purified (HisTrap, TEV digestion, second HisTrap, Superdex 200)
B4: ReAV S48A mutant (Rhizobium etli Class 3, type V L-asparaginase) (enzyme)
chain: B1 chain with A47R, S48A
notes: ReAV, inducible thermolabile type V L-asparaginase of Rhizobium etli; Homodimer; Zn2+ at occupancy 0.7 in the crystal; source: E. coli BL21-Gold (DE3), purified (HisTrap, TEV digestion, second HisTrap, Superdex 200)
B5: ReAV S80A mutant (Rhizobium etli Class 3, type V L-asparaginase) (enzyme)
chain: B1 chain with A47R, S80A
modifications: Cys249 most likely oxidized, modeled as cysteinesulfinic acid
notes: ReAV, inducible thermolabile type V L-asparaginase of Rhizobium etli; Homodimer; source: E. coli BL21-Gold (DE3), purified (HisTrap, TEV digestion, second HisTrap, Superdex 200); mostly in inclusion bodies, about 10 mg/L recovered from the cell lysate

Target: the molecule itself
Assay: crystal structure; hanging-drop vapor diffusion at 19 °C, protein 15-21 mg/mL with 0.5-1% v/v DDM; data at 100 K; molecular replacement with WT ReAV PDB 7os5; dimers in the asymmetric unit

Row | Protein | binding result
1 | B1 | binds
2 | B2 | binds
3 | B3 | binds
4 | B4 | binds
5 | B5 | binds
